Results reported in US20220306744A1 (CRESCENDO BIOLOGICS, published 2022).
Residue numbers refer to the chain shown, from its start. Blank lines part the entries; values can stand above or below the binder they belong to.

Target: T1, human PD-1 expressed on cells (CHO TREX human PD1 cell line, full-length human PD-1 sequence) (human, UniProt Q15116 21-288)
T1 construct: Also used for human PD-1 on Jurkat reporter cells, on PathHunter cells and on PHA-stimulated human CD4+ T cells; also called CHO human PD1 cells; CHO human PD-1 cells
T1 sequence (Q15116 21-288): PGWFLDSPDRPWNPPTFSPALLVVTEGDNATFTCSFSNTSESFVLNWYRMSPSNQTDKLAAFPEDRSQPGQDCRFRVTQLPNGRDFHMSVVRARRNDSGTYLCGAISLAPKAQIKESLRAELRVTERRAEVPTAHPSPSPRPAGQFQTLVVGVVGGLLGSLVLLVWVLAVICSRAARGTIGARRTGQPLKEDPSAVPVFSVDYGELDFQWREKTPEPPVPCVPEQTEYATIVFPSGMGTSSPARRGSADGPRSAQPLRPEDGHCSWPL
Experiment: worded summary of the screens

- binding result: binds
B1: 1.61a (VHH)
VHH: QVQLVESGGGVVRPGGSLRLSCAASGFTFDNYAMSWVRQAPGKGLEWVSGITWNGGSTGYADSVKDRFTISRDNAKNSLYLQMNSLRAEDTALYYCARDKYSYAWSYDTFDIRGQGTMVTVSS

- binding result: binds
B2: 1.67a (VHH)
VHH: B1 VHH with Q1E, N31D, M34G, D66G, A97V, T109G, R113W

- binding result: binds
B3: 1.102a (VHH)
VHH: B1 VHH with Q1E, N31D, A97V, T109V, R113W

- binding result: binds
B4: 1.65a (VHH)
VHH: B1 VHH with Q1E, N31D, M34Q, D66G, A97V, T109G, R113W

- binding result: binds
B5: 1.99a (VHH)
VHH: B1 VHH with Q1E, N31D, D66G, A97V, T109G, R113W

- binding result: binds
B6: 1.69a (VHH)
VHH: B1 VHH with Q1E, N31D, M34W, D66G, A97V, T109G, R113W

- binding result: binds
B7: 1.92a (VHH)
VHH: B1 VHH with Q1E, N31D, M34F, A97V, T109G, R113W

- binding result: binds
B8: 1.91a (VHH)
VHH: B1 VHH with Q1E, N31D, M34R, A97V, T109G, R113W

- binding result: binds
B9: 1.70a (VHH)
VHH: B1 VHH with Q1E, N31D, M34V, D66G, A97V, T109G, R113W

- binding result: binds
B10: 1.64a (VHH)
VHH: B1 VHH with Q1E, N31D, M34F, D66G, A97V, T109G, R113W

- binding result: binds
B11: 1.80a (VHH)
VHH: B1 VHH with Q1E, N31D, G55K, A97V, T109D, R113W

- binding result: binds
B12: 1.78a (VHH)
VHH: B1 VHH with Q1E, N31D, D66G, A97V, T109V, R113W

- binding result: binds
B13: 1.63a (VHH)
VHH: B1 VHH with Q1E, N31D, G55R, D66G, A97V, T109D, R113W

- binding result: binds
B14: 1.100a (VHH)
VHH: B1 VHH with Q1E, N31D, N54K, A97V, T109G, R113W

- binding result: binds
B15: 1.98a (VHH)
VHH: B1 VHH with Q1E, N31D, N54L, A97V, T109G, R113W

- binding result: binds
B16: 1.82a (VHH)
VHH: B1 VHH with Q1E, N31D, M34I, A97V, T109G, R113W

- binding result: binds
B17: 1.74a (VHH)
VHH: B1 VHH with Q1E, N31D, G55S, A97V, T109D, R113W

- binding result: binds
B18: 1.73a (VHH)
VHH: B1 VHH with Q1E, N31D, M34R, D66G, A97V, T109G, R113W

- binding result: binds
B19: 1.79a (VHH)
VHH: B1 VHH with Q1E, N31D, D66G, A97V, T109D, R113W

- binding result: binds
B20: 1.94a (VHH)
VHH: B1 VHH with Q1E, N31D, N54T, A97V, T109G, R113W

- binding result: binds
B21: 1.71a (VHH)
VHH: B1 VHH with Q1E, N31D, M34L, D66G, A97V, T109G, R113W

- binding result: binds
B22: 1.88a (VHH)
VHH: B1 VHH with Q1E, N31D, M34G, A97V, T109G, R113W

- binding result: binds
B23: 1.81a (VHH)
VHH: B1 VHH with Q1E, N31D, G55R, A97V, T109D, R113W

- binding result: binds
B24: 1.96a (VHH)
VHH: B1 VHH with Q1E, N31D, N54P, A97V, T109G, R113W

- binding result: binds
B25: 1.101a (VHH)
VHH: B1 VHH with Q1E, N31D, N54R, A97V, T109G, R113W

- binding result: binds
B26: 1.66a (VHH)
VHH: B1 VHH with Q1E, N31D, M34N, D66G, A97V, T109G, R113W

- binding result: binds
B27: 1.89a (VHH)
VHH: B1 VHH with Q1E, N31D, M34E, A97V, T109G, R113W

- binding result: binds
B28: 1.84a (VHH)
VHH: B1 VHH with Q1E, N31D, M34N, A97V, T109G, R113W

- binding result: binds
B29: 1.76a (VHH)
VHH: B1 VHH with Q1E, N31D, G55H, A97V, T109V, R113W

- binding result: binds
B30: 1.83a (VHH)
VHH: B1 VHH with Q1E, N31D, M34T, A97V, T109G, R113W

- binding result: binds
B31: 1.68a (VHH)
VHH: B1 VHH with Q1E, N31D, M34E, D66G, A97V, T109G, R113W

- binding result: binds
B32: 1.97a (VHH)
VHH: B1 VHH with Q1E, N31D, N54I, A97V, T109G, R113W

- binding result: binds
B33: 1.95a (VHH)
VHH: B1 VHH with Q1E, N31D, N54S, A97V, T109G, R113W

- binding result: binds
B34: 1.77a (VHH)
VHH: B1 VHH with Q1E, N31D, G55A, A97V, T109D, R113W

- binding result: binds
B35: 1.72a (VHH)
VHH: B1 VHH with Q1E, N31D, M34S, D66G, A97V, T109G, R113W

- binding result: binds
B36: 1.87a (VHH)
VHH: B1 VHH with Q1E, N31D, M34L, A97V, T109G, R113W

- binding result: binds
B37: 1.85a (VHH)
VHH: B1 VHH with Q1E, N31D, M34D, A97V, T109G, R113W

- binding result: binds
B38: 1.93a (VHH)
VHH: B1 VHH with Q1E, N31D, M34V, A97V, T109G, R113W

- binding result: binds
B39: 1.86a (VHH)
VHH: B1 VHH with Q1E, N31D, M34S, A97V, T109G, R113W

- binding result: binds
B40: 1.90a (VHH)
VHH: B1 VHH with Q1E, N31D, M34W, A97V, T109G, R113W

- binding result: binds
B41: 1.75a (VHH)
VHH: B1 VHH with Q1E, N31D, G55Q, A97V, T109D, R113W

- binding result: binds
B42: 1.62a (VHH)
VHH: B1 VHH with Q1E, N31D, G55A, D66G, A97V, T109D, R113W
notes: also called Humabody 1.62a
